Experimental findings from patent US20150065434A1 (MUSC FOUNDATION FOR RESEARCH DEVELOPMENT, published 2015) are described below.

The target in experiment [1] is T1, human monoamine oxidase A (human, UniProt P21397 1-527, limits assumed).
T1 sequence (looked up): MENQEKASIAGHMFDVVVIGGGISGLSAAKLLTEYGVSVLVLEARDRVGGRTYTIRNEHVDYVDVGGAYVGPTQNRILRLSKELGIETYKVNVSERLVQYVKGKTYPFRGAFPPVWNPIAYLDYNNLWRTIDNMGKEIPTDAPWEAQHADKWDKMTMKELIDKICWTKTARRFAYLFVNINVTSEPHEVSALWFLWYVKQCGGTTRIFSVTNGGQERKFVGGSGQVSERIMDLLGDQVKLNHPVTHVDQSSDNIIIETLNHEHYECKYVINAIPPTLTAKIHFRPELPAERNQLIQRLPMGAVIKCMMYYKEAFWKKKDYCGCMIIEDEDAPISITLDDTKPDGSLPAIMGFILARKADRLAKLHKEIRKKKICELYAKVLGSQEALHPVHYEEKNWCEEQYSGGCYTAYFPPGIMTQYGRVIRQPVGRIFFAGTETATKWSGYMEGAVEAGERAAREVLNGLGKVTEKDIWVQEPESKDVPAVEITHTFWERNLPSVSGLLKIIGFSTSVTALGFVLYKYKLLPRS
In words: cell-based or functional assay.

Experiment [2] has as its target T2, human monoamine oxidase B (human, UniProt P27338 1-520, limits assumed).
T2 sequence (looked up): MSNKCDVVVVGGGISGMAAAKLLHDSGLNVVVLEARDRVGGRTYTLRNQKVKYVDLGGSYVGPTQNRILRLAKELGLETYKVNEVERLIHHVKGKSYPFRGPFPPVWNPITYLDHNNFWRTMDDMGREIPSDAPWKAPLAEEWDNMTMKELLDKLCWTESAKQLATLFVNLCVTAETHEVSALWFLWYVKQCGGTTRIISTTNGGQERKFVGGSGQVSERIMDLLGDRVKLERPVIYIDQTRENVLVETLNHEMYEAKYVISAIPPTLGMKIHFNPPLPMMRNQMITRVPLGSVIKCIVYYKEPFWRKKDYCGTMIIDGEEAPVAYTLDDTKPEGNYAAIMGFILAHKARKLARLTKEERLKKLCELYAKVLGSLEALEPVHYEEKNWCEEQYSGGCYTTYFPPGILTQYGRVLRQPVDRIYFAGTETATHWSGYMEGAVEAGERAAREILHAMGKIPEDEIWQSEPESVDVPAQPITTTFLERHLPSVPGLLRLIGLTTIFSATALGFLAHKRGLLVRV
In words: cell-based or functional assay.

Bridge positions count the residues as written; N and C are the ends. Ends that are not written are not given here.

B1: [Met]^4 H3 (1-21)-NH2 cyclic peptide 11, lactam bridge between Lys5 and Glu10 (peptide)
peptide: ARTMKTARKETGGKAPRKQLA-NH2
modifications: lactam 5-10
Regarding B1, in experiment [1], the “IC50 (inhibition of MAO-A)” value is more than 100 µM. The “IC50 (inhibition of MAO-B)” value in experiment [2] is more than 100 µM.
